Data taken from patent publication US20020004226A1.

Target: soluble LDL receptor from the supernatant of IFN-gamma-treated human WISH cells (antiviral factor) (human) (UniProt P01130)
Assay: immunoaffinity chromatography on agarose-coupled C7; antiviral activity recovered in the pH 11 eluate (el.2 and el.3) relative to the load

UniProt P01130, sequence (P01130 25-313 limits assumed): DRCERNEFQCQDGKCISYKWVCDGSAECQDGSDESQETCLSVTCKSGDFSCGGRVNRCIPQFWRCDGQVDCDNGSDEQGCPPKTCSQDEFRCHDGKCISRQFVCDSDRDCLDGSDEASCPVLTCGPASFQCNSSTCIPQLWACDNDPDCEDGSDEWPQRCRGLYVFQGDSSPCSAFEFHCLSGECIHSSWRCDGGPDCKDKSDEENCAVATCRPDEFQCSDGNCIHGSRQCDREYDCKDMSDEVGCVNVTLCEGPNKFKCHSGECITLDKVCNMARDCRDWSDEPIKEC

“monoclonal antibody C7 (hybridoma C7, ATCC CRL 1691)” was tested, and the recovery was 32%.
